{"source": "paper doi:10.1101/2025.08.05.668778", "about": "(bioRxiv, 2025)", "binders": {"B1": {"name": "M6 protein, intact wild type (aa 43–452) (natural protein)", "chain": "RVFPRGTVENPDKARELLNKYDVENSMLQANNDKLTTENNNLTDQNKNLTTENKNLTDQNKNLTTENKNLTDQNKNLTTENKELKAEENRLTTENKGLTKKLSEAEEEAANKERENKEAIGTLKKTLDETVKDKIAKEQESKETIGTLKKTLDETVKDKIAKEQESKETIGTLKKTLDETVKDKIAKEQESKETIGTLKKILDETVKDKIAREQKSKQDIGALKQELAKKDEGNKVSEASRKGLRRDLDASREAKKQVEKDLANLTAELDKVKEEKQISDASRQGLRRDLDASREAKKQVEKALEEANSKLAALEKLNKELEESKKLTEKEKAELQAKLEAEAKALKEQLAKQAEELAKLRAGKASDSQTPDAKPGNKVVPGKGQAPQAGTKPNQNKAPMKETKRQLPST", "notes": "source: E. coli BL21 (Gold), purified; not shown: His6, C-terminal, kept"}, "B2": {"name": "M5 protein fragment (aa 94–175) (domain or fragment)", "chain": "NEGLKTEKKEHEAENDKLKQQRDTLSTQKETLEREVQNTQYNNETLKIKNGDLTKELNKTRQELANKQQESKENEKALNELL", "notes": "source: E. coli BL21 (Gold), purified"}, "B3": {"name": "FbaA (57–130), wild type (domain or fragment)", "chain": "NWHHIDKDGLIPLGISLEAAKEEFKKEVEESRLSEAQKETYKQKIKTAPDKDKLLFTYHSEYMTAVKDLPASTE", "notes": "source: E. coli BL21 (Gold), purified; not shown: His6, N-terminal, kept"}, "B4": {"name": "M6 protein fragment (aa 74–157) (domain or fragment)", "chain": "NDKLTTENNNLTDQNKNLTTENKNLTDQNKNLTTENKNLTDQNKNLTTENKELKAEENRLTTENKGLTKKLSEAEEEAANKERE", "notes": "as for B2"}, "B5": {"name": "M5 protein, intact wild type (aa 43–377) (natural protein)", "chain": "AVTRGTINDPQRAKEALDKYELENHDLKTKNEGLKTENEGLKTENEGLKTENEGLKTEKKEHEAENDKLKQQRDTLSTQKETLEREVQNTQYNNETLKIKNGDLTKELNKTRQELANKQQESKENEKALNELLEKTVKDKIAKEQENKETIGTLKKILDETVKDKIAKEQENKETIGTLKKILDETVKDKLAKEQKSKQNIGALKQELAKKDEANKISDASRKGLRRDLDASREAKKQLEAEHQKLEEQNKISEASRKGLRRDLDASREAKKQLEAEQQKLEEQNKISEASRKGLRRDLDASREAKKQVEKALEEANSKLAALEKLNKELEESKK", "notes": "as for B1"}}, "key": {"[1]": {"target": "T1, factor H (intact) (human, UniProt P08603 19-1231)", "T1 construct": "also called FH; intact FH; source: bought: Complement Technology", "T1 sequence (P08603 19-1231)": "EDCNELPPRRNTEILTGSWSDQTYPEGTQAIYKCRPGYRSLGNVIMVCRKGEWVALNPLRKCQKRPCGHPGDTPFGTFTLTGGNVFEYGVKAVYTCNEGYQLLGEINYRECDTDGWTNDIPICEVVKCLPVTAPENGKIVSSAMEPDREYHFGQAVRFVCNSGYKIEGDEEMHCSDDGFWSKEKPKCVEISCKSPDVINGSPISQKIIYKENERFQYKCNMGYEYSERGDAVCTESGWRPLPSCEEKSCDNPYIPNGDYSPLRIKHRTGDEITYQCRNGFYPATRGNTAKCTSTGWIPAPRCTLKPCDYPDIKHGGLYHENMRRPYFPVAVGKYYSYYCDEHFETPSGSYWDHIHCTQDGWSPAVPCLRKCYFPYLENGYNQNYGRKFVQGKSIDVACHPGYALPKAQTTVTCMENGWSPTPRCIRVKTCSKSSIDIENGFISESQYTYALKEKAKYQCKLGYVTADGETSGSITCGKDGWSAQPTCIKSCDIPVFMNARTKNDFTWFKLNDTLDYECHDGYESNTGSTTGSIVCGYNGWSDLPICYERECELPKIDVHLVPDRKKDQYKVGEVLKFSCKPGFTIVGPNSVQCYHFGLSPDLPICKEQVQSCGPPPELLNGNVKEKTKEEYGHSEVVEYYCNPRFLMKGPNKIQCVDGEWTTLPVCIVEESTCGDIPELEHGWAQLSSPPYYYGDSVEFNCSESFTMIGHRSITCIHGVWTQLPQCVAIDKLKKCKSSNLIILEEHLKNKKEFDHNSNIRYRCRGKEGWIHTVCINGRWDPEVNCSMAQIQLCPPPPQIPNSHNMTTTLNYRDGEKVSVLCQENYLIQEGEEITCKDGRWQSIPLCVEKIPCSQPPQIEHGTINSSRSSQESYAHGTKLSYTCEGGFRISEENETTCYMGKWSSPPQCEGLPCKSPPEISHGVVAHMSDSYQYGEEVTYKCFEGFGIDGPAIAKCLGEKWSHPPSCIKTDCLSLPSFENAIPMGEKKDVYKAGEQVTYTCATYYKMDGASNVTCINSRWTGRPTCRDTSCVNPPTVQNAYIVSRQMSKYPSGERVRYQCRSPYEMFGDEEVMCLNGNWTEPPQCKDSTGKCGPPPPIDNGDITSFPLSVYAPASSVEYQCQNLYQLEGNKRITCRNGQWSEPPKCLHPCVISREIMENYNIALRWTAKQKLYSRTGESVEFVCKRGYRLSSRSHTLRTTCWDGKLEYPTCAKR", "experiment": "ELISA; M, Enn or FbaA protein coated on wells (20 μg/ml in PBS pH 7.2, overnight 4 °C); soluble intact factor H 10 μg/ml, 1 h, RT; bound FH detected with mouse monoclonal anti-human FH and HRP anti-mouse IgG; uncoated wells subtracted; values normalized to wild type", "details": "both partners purified"}, "[2]": {"target": "the molecule itself", "experiment": "crystal structure"}}, "data": [{"binder": "B1", "values": [{"measurement": "binding result", "setting": "[1]", "value": "binds"}]}, {"binder": "B2", "values": [{"measurement": "stoichiometry N", "setting": "[2]", "value": 2}]}, {"binder": "B3", "values": [{"measurement": "binding result", "setting": "[1]", "value": "binds"}]}, {"binder": "B4", "values": [{"measurement": "stoichiometry N", "setting": "[2]", "value": 2}]}, {"binder": "B5", "values": [{"measurement": "binding result", "setting": "[1]", "value": "binds"}]}]}
